Consider 2 substances from patent publication US8859496B2, “Pharmaceutical composition using connective-tissue growth factor” (Postech Academy-Industry Foundation, priority 2010, dated 2014).

The target of the test is T1, FPRL1 in HUVECs (Homo sapiens, UniProt P25090).
T1 construct: endogenous in cells; host or cells: HUVECs
T1 sequence (P25090 1-351): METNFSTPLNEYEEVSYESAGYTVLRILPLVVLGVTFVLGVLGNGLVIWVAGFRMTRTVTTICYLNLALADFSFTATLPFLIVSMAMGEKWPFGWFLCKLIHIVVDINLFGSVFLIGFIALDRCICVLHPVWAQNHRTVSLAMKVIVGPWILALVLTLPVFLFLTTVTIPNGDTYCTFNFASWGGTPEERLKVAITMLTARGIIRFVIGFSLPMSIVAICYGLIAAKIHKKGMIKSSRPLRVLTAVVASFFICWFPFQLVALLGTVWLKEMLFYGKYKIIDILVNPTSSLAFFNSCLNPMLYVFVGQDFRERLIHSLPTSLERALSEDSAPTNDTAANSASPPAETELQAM
Nature of the test: Flow cytometry binding of biotinylated linker polypeptide in HUVECs. As to the method: To evaluate the degree of binding of linker polypeptide corresponding to the link region of human CTGF, linker polypeptide was labeled using a EZ-Link Micro Sulfo-NHS-LC-Biotinylation kit (Pierce Chemical Co., Rockford, Ill., USA) according to the manufacturer's instruction. The linker polypeptide was cultured at room temperature for 1 hour in PBS with 9 mM sulfo-NHS-LC-biotin (Pierce Chemical Co., Rockford, Ill., USA). During biotinylation, vector/RBL cells, FPR/RBL cells, FPRL1/RBL cells, or HUVECs were treated with trypsin, and collected, and then, treated with rabbit serum at room temperature for 30 minutes. After culturing the biotinylated linker polypeptide in the ice for 30 minutes, the cells were shortly washed with ice-cold PBS, cultured with antihuman fluoroscein-5-isothiocyanate (FITC)-conjugated streptavidin (Pierce Chemical Co.), and then, washed with ice-cold PBS, and fixed with 1% formaldehyde solution. And then, they were analyzed using FACS Caliber system (BD Biosciences, San Jose, Calif.) with CellQuest and WinMDI 2.9 software according to previously known method (He, R., Sang, H. & Ye, R. D. Serum amyloid A induces IL-8 secretion through a G protein-coupled receptor, FPRL1/LXA4R. Blood 101, 1572-1581, 2003).
It was examined whether the CTGF linker polypeptide binds to FPRL1 in HUVECs as described in the <Experiment method 7>, and the results are shown in FIG. 13. […]
(In general: A flow cytometer gives signals particle by particle.)

No end group written: not given here.

As for “EWVCDEPKDQTVVGPALAAYRLEDTFGPDPTMIRANCLV (EWVCDEPKDQTVVGPALAAYRLEDTFGPDPTMIRANCLV-NH2; cysteine pairing not given here) [CTGF linker polypeptide]”, the “binding of linker polypeptide in HUVECs (flow cytometry shift)” value (10 nM, 30 minutes, compared to vehicle) is “average value shifts right”.

Regarding WRWWWW (FPRL1 antagonist) [WRW4], the “effect of antagonist on linker polypeptide binding in HUVECs” value (WRW4 10 uM with 10 nM CTGF linker polypeptide) is reported as “the shift is not observed”.
